Experimental data: paper PMC4619462, “Description of the first fungal dye-decolorizing peroxidase oxidizing manganese(II)” (Applied Microbiology and Biotechnology, 2015)

Assays:
Experiment in all cases: purified protein
[1] = substrate: COc1cccc(OC)c1O; details: 0.25 mM H2O2, 0.1 M tartrate pH 3.5 (table note; methods say pH 3), 25 °C
[2] = substrate: Nc1c(N=Nc2ccc(S(=O)(=O)CCOS(=O)(=O)O)cc2)c(S(=O)(=O)O)cc2cc(S(=O)(=O)O)c(N=Nc3ccc(S(=O)(=O)CCOS(=O)(=O)O)cc3)c(O)c12; details: 0.25 mM H2O2, 0.1 M tartrate pH 3.5 (table note; methods say pH 3), 25 °C
[3] = substrate: Nc1c(S(=O)(=O)O)cc(Nc2cccc(S(=O)(=O)CCOS(=O)(=O)O)c2)c2c1C(=O)c1ccccc1C2=O; details: 0.25 mM H2O2, 0.1 M tartrate pH 3.5, 25 °C, pH 3.5
[4] = substrate: CCn1c(=NN=c2sc3cc(S(=O)(=O)O)ccc3n2CC)sc2cc(S(=O)(=O)O)ccc21; assay type: biochemical, Pleurotus ostreatus; details: 0.25 mM H2O2, 0.1 M tartrate pH 3.5, 25 °C
[5] = substrate: Nc1c(S(=O)(=O)O)cc(Nc2cccc(S(=O)(=O)CCOS(=O)(=O)O)c2)c2c1C(=O)c1ccccc1C2=O; assay type: biochemical, Pleurotus ostreatus; details: 0.25 mM H2O2, 0.1 M tartrate pH 3.5, 25 °C

B1: Pleos-DyP4 (Pleurotus ostreatus PC15) (protein)
chain: MTTPAPPLDLNNIQGDILGGLPKRTETYFFFDVTNVDQFKANMAHFIPHIKTSAGIIKDREAIKEHKRQKKPGLVPMAAVNVSFSHLGLQKLGITDDLSDNAFTTGQRKDAEILGDPGSKNGDAFTPAWEAPFLKDIHGVIFVAGDCHGSVNKKLDEIKHIFGVGTSHASISEVTHVRGDVRPGDVHAHEHFGFLDGISNPAVEQFDQNPLPGQDPIRPGFILAKENGDSRAAARPDWAKDGSFLTFRYLFQMVPEFDDFLESNPIVLPGLSRKEGSELLGARIVGRWKSGAPIEITPLKDDPKLAADAQRNNKFDFGDSLVRGDQTKCPFAAHIRKTYPRNDLEGPPLKADIDNRRIIRRGIQFGPEVTSQEHHDKKTHHGRGLLFVCYSSSIDDGFHFIQESWANAPNFPVNAVTSAGPIPPLDGVVPGFDAIIGQKVGGGIRQISGTNPNDPTTNITLPDQDFVVPRGGEYFFSPSITALKTKFAIGVASPAPHSQAPISA
Km [1]: 126 ± 21 µM
kcat [1]: 268 ± 24 s⁻¹
kcat/Km [1]: 2.12e+06 M⁻¹ s⁻¹
Km [2]: 5.7 ± 0.4 µM
kcat [2]: 5.3 ± 0.8 s⁻¹
kcat/Km [2]: 1.08e+06 M⁻¹ s⁻¹
Km [3]: 82 ± 13 µM
kcat [3]: 152 ± 13 s⁻¹
kcat/Km [3]: 1.86e+06 M⁻¹ s⁻¹
Km [4]: 787 ± 160 µM
kcat [4]: 277 ± 24 s⁻¹
kcat/Km [4]: 352000 M⁻¹ s⁻¹

B2: Pleos-VP2 (Pleurotus ostreatus) (protein)
chain: VTCATGQTTANEACCALFPILDDIQTNLFDGAQCGEEVHESLRLTFHDAIAFSPALTNAGQFGGGGADGSMIIFSDTEPNFHANLGIDEIVEAQKPFIARHNICAADFIQFAGAIGVSNCAGAPRLNFFLGRPDATQIPPDGLVPEPFDDVTKILSRMGDAGFSTVEVVWLLSSHTIAAADLVDPSIPGTPFDSTPSTFDSQFFLETMLQGTAFPGTPGNQGEVESPLAGEMRLQSDFLLARDSRSACEWQSMVNNMPKIQNRFTQVMKKLSLLGHNQADLIDCSDVIPVPKTLTKAATFPAGKSQADVEIVCNAAATPFPALSSDPGPVTAVPPVPPS
Km [5]: 16 ± 1 µM
kcat [5]: 8 ± 0.2 s⁻¹
kcat/Km [5]: 495000 M⁻¹ s⁻¹
